According to PMC6923396:

Columns and labels:
[1] = target: p62-UBA K420Q (for NMR) (mouse) (UniProt Q64337); test: NMR dilution series (1H-15N HSQC peak volumes of monomer and dimer); 15N-labeled p62-UBA diluted from 500 to 20 µM; 298 K, pH 6.0, 20 mM sodium acetate, 100 mM NaCl; dimer to monomers
[2] = target: p62-UBA K435Q (for NMR) (mouse) (UniProt Q64337); test: as above

p62-UBA K420Q (for NMR) (from UniProt Q64337-1 391-436) (domain or fragment)
Kd [1]: 41.2 µM

p62-UBA K435Q (for NMR) (from UniProt Q64337-1 391-437) (domain or fragment)
Kd [2]: 15.5 µM
